Self-cleavage data for 64 variants are collected here from the RNAGym collection of RNA variant scans (doi:10.7554/elife.80360).

First the molecules themselves.
B1: HDV Ribozyme (parent)
chain: GGCCGGCAUGGUCCCAGCCUCCUCGCUGGCGCCGGCUGGGCAACAUUCCGAGGGGACCGUCCCCUCGGUAAUGGCGAAUGGGACCCA

This series covers variants of B1. Description: self-cleavage, relative activity (ratio to wild type); higher = more cleavage; co-transcriptional.
Turning to GGCCGGCAAGGUCCCAGCCUCCUCGCUGGCGCCGGCUGGGCAACAUUGCGAGGGGACCGUCCCCUCGGUAAUGGCGAAUGGGACCCA, the self-cleavage worked out at 1.31.

On to GGCCGGCACGGUCCCAGCCUCCUCGCUGGCGCCGGCUGGGCAACAUUCCGUGGGGACCGUCCCCUCGGUAAUGGCGAAUGGGACCCA, for which the self-cleavage worked out at 1.06. The figure for GGCCGGCAAGGUCCCAGCCUCCUCGCUGGCGCCGGCUGGGCAACAUUCCGAGGGGACCGUCCCCUCGGUAAUGGCGAAUGGGAUCCA is 0.749; for GGCCGGCUUGGUCCCAGCCUCCUCGCUGGCGCCGGCUGGGCAACAUGCCGAGGGGACCGUCCCCUCGGUAAUGGCGAAUGGGACCCA it is 0.831. Next, GGCCGGCAAGGCCCCAGCCUCCUCGCUGGCGCCGGCUGGGCAACAUUCCGAGGGGACCGUCCCCUCGGUAAUGGCGAAUGGGACCCA: 0.289. With GGCCGGCAAGGUCCCAGCCUCCUCGCUGGCGCCGGCUGGGCAACAUUCCGAGGGGACCGUCCCCUCGGUAAAGGCGAAUGGGACCCA, the self-cleavage turned out to be 0.712.

For the variant GGCCGGCAAGGUCCCUGCCUCCUCGCUGGCGCCGGCUGGGCAACAUUCCGAGGGGACCGUCCCCUCGGUAAUGGCGAAUGGGACCCA, the self-cleavage was 1.19. The figure for GGCCGGCAAGGUCCCAGCCUCCUCGCUGGCGCCGGCUGGGCAACAUUCCGAGGGGACCGUCCCCUCGGUAAUGGCGAAUGAGACCCA is 0.396. As to GGCCGGCAAGGUCCCAGCCUCCUCGCUGGCGCCGGCUGGGCAACAUUCCGAGGGGACCGGCCCCUCGGUAAUGGCGAAUGGGACCCA, the self-cleavage came out at 0.9.

Consider GGCCGGCAAGGUCCCAGCCUCCUCGCUGGCGCCGGCUGGGCAACAUUCCGAGGGGACCGCCCCCUCGGUAAUGGCGAAUGGGACCCA, for which the self-cleavage was found to be 1.02. As for GGCCGGCAAGGUCCCAGCCUCCUCGCUGGCGCCGGCUGGGCAACAUUCCGAGGGGACCGUCCCCUCGGUAAUGGCGAAUGGGACACA, the self-cleavage worked out at 0.902. Next, GGCCGGCAAGGUCCCAGCCUCCUCGCUGGCGCCGGCUGGGCAACAUUCCGAGGGGACCGUCCCCUCGGUAAUGGCGAAUGGGACGCA: 1.13. The figure for GGCCGGCAAGGUCCCAGCCUCCUCGCUGGCGCCGGCUGGGCAACAUUCCGAGGGGACCGUCCCCUCGGUAAUGACGAAUGGGACCCA is 0.491; for GGCCGGCUUGGUCCCAGCCUCCUCGCUGGCGCCGGCUGGGCAACAUUCCGAGGGGACCGUCCCCUCGGUAAUGGCGAAGGGGACCCA it is 0.289.

On to GGCCGGCUUGGUCCCAGCCUCCUCGCUGGCGCCGGCUGGGCAACAUUCCGAGGGGACCGUCCCCUCGGUAAUGGCGAAAGGGACCCA, for which the self-cleavage is 0.525. Next, GGCCGGCAAGGUCCCAGCCUCCUCGCUGGCGCCGGCUGGGCAACAUUCCGAGGGGACCGUCCCCUCGGUAAUGGUGAAUGGGACCCA: 0.145.

GGCCGGCAAGGUCCCAGCCUCCUCGCUGGCGCCGGCUGGGCAACAUUCCGAGGGGACCGUCCCCUCGGUAAUGGAGAAUGGGACCCA: the self-cleavage stood at 0.0573.

For the variant GGCCGGCAAGGUCCCAGCCUCCUCGCUGGCGCCGGCUGGGCAACAUUCCGAGGGGACCGUCCCCUCGGUAAUGGCGAAUGGGACCUA, the self-cleavage came to 1.09. Next, GGCCGGCAAGGUCCCAGCCUCCUCGCUGGCGCCGGCUGGGCAACAGUCCGAGGGGACCGUCCCCUCGGUAAUGGCGAAUGGGACCCA: 1.08; GGCCGGCAAGGUCCCAGCCUCCUCGCUGGCGCCGGCUGGGCAACACUCCGAGGGGACCGUCCCCUCGGUAAUGGCGAAUGGGACCCA: 0.831; GGCCGGCAAGGUCCCAGCCUCCUCGCUGGCGGCGGCUGGGCAACAUUCCGAGGGGACCGUCCCCUCGGUAAUGGCGAAUGGGACCCA: 0.0489.

Turning to GGCCGGCAAGGUCCCAGCCUCCUCGCAGGCGCCGGCUGGGCAACAUUCCGAGGGGACCGUCCCCUCGGUAAUGGCGAAUGGGACCCA, the self-cleavage came to 0.9. As to GGCCGGCAAGGUCCCAGCCUCCUCGCCGGCGCCGGCUGGGCAACAUUCCGAGGGGACCGUCCCCUCGGUAAUGGCGAAUGGGACCCA, the self-cleavage was 0.795. Next, GGCCGGCAAGGUCCCAGGCUCCUCGCUGGCGCCGGCUGGGCAACAUUCCGAGGGGACCGUCCCCUCGGUAAUGGCGAAUGGGACCCA: 0.369; GGCCGGCAAGGUCCCAGUCUCCUCGCUGGCGCCGGCUGGGCAACAUUCCGAGGGGACCGUCCCCUCGGUAAUGGCGAAUGGGACCCA: 0.991.

Consider GGCCGGCAAGGUCCCAGACUCCUCGCUGGCGCCGGCUGGGCAACAUUCCGAGGGGACCGUCCCCUCGGUAAUGGCGAAUGGGACCCA, for which the self-cleavage came to 0.107. The figure for GGCCGGCAAGGUCACAGCCUCCUCGCUGGCGCCGGCUGGGCAACAUUCCGAGGGGACCGUCCCCUCGGUAAUGGCGAAUGGGACCCA is 0.65; for GGCCGGCUUGGUCCCAGCCUCCUCGCUGGCGCCGGCUGGGCAACAGUCCGAGGGGACCGUCCCCUCGGUAAUGGCGAAUGGGACCCA it is 0.604; for GGCCGGCAAGGUCCCAGCCUCCUCGCUGGCGCCGGCUGGGCAACAUUCCGAGGGGACCGUCCACUCGGUAAUGGCGAAUGGGACCCA it is 1.25. Next, GGCCGGCAAGGUCCCAGCCUCCUCGCUGGCGCCCGCUGGGCAACAUUCCGAGGGGACCGUCCCCUCGGUAAUGGCGAAUGGGACCCA: 0.375; GGCCGGCACGGUCCCAGCCUCCUCGCUGGCGCCGGCUGGGCAACAUUCCGAGGGGACCGUCCCCUCGGUAGUGGCGAAUGGGACCCA: 0.997.

Turning to GGCCGGCAAGGUCCCAGCCUCCUCGCUGGCGCCGGCUGGGCAACAUUCCGAGGGGACCGUCCCCUGGGUAAUGGCGAAUGGGACCCA, the self-cleavage is 1.1.

As for GGCCGGCAAGGUCCCAGCCUCCUCGCUGGCGCCGGCUGGGCAACAUUCCGCGGGGACCGUCCCCUCGGUAAUGGCGAAUGGGACCCA, the self-cleavage came to 0.923. As to GGCCGGCACGGUCCCAGCCUCCUCGCUGGCGCCGGCUGGGCAGCAUUCCGAGGGGACCGUCCCCUCGGUAAUGGCGAAUGGGACCCA, the self-cleavage was found to be 0.755. Next, GGCCGGCAAGGUCCCAGCCUCCUCGCUGGCGCCGGCUGGGCACCAUUCCGAGGGGACCGUCCCCUCGGUAAUGGCGAAUGGGACCCA: 0.447. Take GGCCGGCAAGGUCCCAGCCUCCUCGCUGGCGCCGGCUGGGCAACAUUCCGAGCGGACCGUCCCCUCGGUAAUGGCGAAUGGGACCCA: the self-cleavage amounted to 0.974. The figure for GGCCGGCAAGGUCCCAGCCUCCUCGCUGGCGCCGGGUGGGCAACAUUCCGAGGGGACCGUCCCCUCGGUAAUGGCGAAUGGGACCCA is 0.369; for GGCCGGCAAGGUCCCAGCCUCCUCGCUGGCGCCGGUUGGGCAACAUUCCGAGGGGACCGUCCCCUCGGUAAUGGCGAAUGGGACCCA it is 1.02; for GGCCGGCAAGGUCCCAGCCUCCUCGCUGGCGCCGGAUGGGCAACAUUCCGAGGGGACCGUCCCCUCGGUAAUGGCGAAUGGGACCCA it is 0.122.

Consider GGCCGGCACGGUCCCAGCCUCCUCGCUGGCGCCGGCUGGGCAACAUUCCGAGGGGACCGUCCCCUCGGUGAUGGCGAAUGGGACCCA, for which the self-cleavage was determined as 1.25. Turning to GGCCGGCAAGGUCCCAACCUCCUCGCUGGCGCCGGCUGGGCAACAUUCCGAGGGGACCGUCCCCUCGGUAAUGGCGAAUGGGACCCA, the self-cleavage was found to be 0.906. As for GGCCGGCAAGGUCCCAGCCUCCUCGUUGGCGCCGGCUGGGCAACAUUCCGAGGGGACCGUCCCCUCGGUAAUGGCGAAUGGGACCCA, the self-cleavage was determined as 1.12.

As for GGCCGGCAAGGUCCCAGCCUCCUCGCUGGCGCCGGCUGGGCAACAUUCCGAGGGGACCUUCCCCUCGGUAAUGGCGAAUGGGACCCA, the self-cleavage stood at 1.41. The figure for GGCCGGCAAGGUCCCAGCCUCCUCGCUGGCGCCGGCUGGGCAACAUUCCGAGGGGACCGUCCCCUCGGUGAUGGCGAAUGGGACCCA is 0.918; for GGCCGGCAAGGUCCCAGCCUCCUCGCUGGCGCCGGCUGGGCUACAUUCCGAGGGGACCGUCCCCUCGGUAAUGGCGAAUGGGACCCA it is 0.688; for GGCCGGCAAGGUCCCAGCCUCCUCGCUGGCGCCGGCUGGGCAACAUUCCGAGGGGACCGUCCCAUCGGUAAUGGCGAAUGGGACCCA it is 1.04. The figure for GGCCGGCAAGGUCCCAGCCUCCUCGCUGGCGCCGGCUGGGCAACAUACCGAGGGGACCGUCCCCUCGGUAAUGGCGAAUGGGACCCA is 1.09. The figure for GGCCGGCAAGGUCCCAGCCUCCUCCCUGGCGCCGGCUGGGCAACAUUCCGAGGGGACCGUCCCCUCGGUAAUGGCGAAUGGGACCCA is 0.0615. Take GGCCGGCAAGGUCCCAGCCUCCUCGCUGGCGCCGGCUGGGCAACAUUCCGAGGGAACCGUCCCCUCGGUAAUGGCGAAUGGGACCCA: the self-cleavage was found to be 1.09. GGCCGGCAAGGUCCCAGCCUCCUCGCUGGCGCCGGCUGGGCAACAUUCCGAGGGGACCGUACCCUCGGUAAUGGCGAAUGGGACCCA: the self-cleavage worked out at 1.16.

Regarding GGCCGGCAAGGUCCCAGCCUCCUCGCUGGCGCCGGCUGGGCAACAUUCCGAGGGGACCGUCCCCUCGGUAAUGGCGAAUGGCACCCA, the self-cleavage was determined as 0.332. The figure for GGCCGGCACGGUCCCAGCCUCCUCGCUGGCGCCGGCUGGGCAACCUUCCGAGGGGACCGUCCCCUCGGUAAUGGCGAAUGGGACCCA is 0.957; for GGCCGGCAAGGUCCCAGCCUCCUCGCUGGCGCCGGCUGGGCAACAUUCCGAGGGGCCCGUCCCCUCGGUAAUGGCGAAUGGGACCCA it is 1.16; for GGCCGGCAAGGUCCCAGCCUCCUCGCUGGCGCCGGCUGGGCAACAUUCCGAGGGGGCCGUCCCCUCGGUAAUGGCGAAUGGGACCCA it is 0.95.

Turning to GGCCGGCAAGGUCCCAGCCUCCUCGCUGGCGCCGGCUGGGCAACAUUCCGAGGGGAGCGUCCCCUCGGUAAUGGCGAAUGGGACCCA, the self-cleavage is 1.18. Next, GGCCGGCAAGGUGCCAGCCUCCUCGCUGGCGCCGGCUGGGCAACAUUCCGAGGGGACCGUCCCCUCGGUAAUGGCGAAUGGGACCCA: 0.111; GGCCGGCUUGGUCCCAGCCUCCUCGCUGGCGCCGGCUGGGCAACAUUCCGAGGGGACCGUCCCCCCGGUAAUGGCGAAUGGGACCCA: 0.895. The figure for GGCCGGCAAGUUCCCAGCCUCCUCGCUGGCGCCGGCUGGGCAACAUUCCGAGGGGACCGUCCCCUCGGUAAUGGCGAAUGGGACCCA is 0.312; for GGCCGGCAAGGUCCCAGCCUCCACGCUGGCGCCGGCUGGGCAACAUUCCGAGGGGACCGUCCCCUCGGUAAUGGCGAAUGGGACCCA it is 1.12. Next, GGCCGGCAAGGUCCCAGCCUCCUCGCUGGCGCCGGCUGGGCAACAUUCCGAGGGGACCGUCCCCUCGGGAAUGGCGAAUGGGACCCA: 1.06; GGCCGGCAAGGUCCCAGCCUCCUCGCUGGCGCCGGCUGGGCAACAUUCCGACGGGACCGUCCCCUCGGUAAUGGCGAAUGGGACCCA: 1.16. Consider GGCCGGCAAGGUCCCAGCCUCCUCGCUGGCGCCGGCUGGGCAACAUUCCGAUGGGACCGUCCCCUCGGUAAUGGCGAAUGGGACCCA, for which the self-cleavage was found to be 0.858. Next, GGCCGGCAAGGUCCCAGCCUCCUCGCUGGCGCCGGCUGGGCAACAUUCCGAGGGGACCGUCCCCCCGGUAAUGGCGAAUGGGACCCA: 1.07. Next, GGCCGGCAAGGUCCCAGCCUCGUCGCUGGCGCCGGCUGGGCAACAUUCCGAGGGGACCGUCCCCUCGGUAAUGGCGAAUGGGACCCA: 0.0519.
